Measurements as given in patent publication US20130209454A1.
Positions count from the first letter of the chain named. In names and notes the source's numbering stands.

What was measured:
Assay in all cases: cell-based or functional assay
[1] = molecular target: HIV-1 Env of strain 0260.v5.c36 (HIV-1)
[2] = molecular target: HIV-1 Env of strain 191821_E6_1 (HIV-1)
[3] = molecular target: HIV-1 Env of strain 235-47 (HIV-1)
[4] = molecular target: HIV-1 Env of strain 263-8 (HIV-1)
[5] = molecular target: HIV-1 Env of strain 6041.v3.c23 (HIV-1)
[6] = molecular target: HIV-1 Env of strain 6244_13_B5_4576 (HIV-1)
[7] = molecular target: HIV-1 Env of strain 6545.v4.c1 (HIV-1)
[8] = molecular target: HIV-1 Env of strain 9004SS_A3_4 (HIV-1)
[9] = molecular target: HIV-1 Env of strain BJOX015000.11.5 (HIV-1)
[10] = molecular target: HIV-1 Env of strain BJOX025000.01.1 (HIV-1)
[11] = molecular target: HIV-1 Env of strain C4118.c09 (HIV-1)
[12] = molecular target: HIV-1 Env of strain CNE5 (HIV-1)
[13] = molecular target: HIV-1 Env of strain Ce1086_B2 (HIV-1)
[14] = molecular target: HIV-1 Env of strain HIV-0013095-2.11 (HIV-1)
[15] = molecular target: HIV-1 Env of strain HIV-16055-2.3 (HIV-1)
[16] = molecular target: HIV-1 Env of strain SC05_8C11_2344 (HIV-1)
[17] = molecular target: Env of HIV-1 strain 1394C9G1(Rev-) (HIV-1)
[18] = molecular target: Env of HIV-1 strain 191821_E6_1 (HIV-1)
[19] = molecular target: Env of HIV-1 strain 191955_A11 (HIV-1)
[20] = molecular target: Env of HIV-1 strain 235-47 (HIV-1)
[21] = molecular target: Env of HIV-1 strain 249M B10 (HIV-1)
[22] = molecular target: Env of HIV-1 strain 3016.v5.c45 (HIV-1)
[23] = molecular target: Env of HIV-1 strain 3365.v2.c2 (HIV-1)
[24] = molecular target: Env of HIV-1 strain 3817.v2.c59 (HIV-1)
[25] = molecular target: Env of HIV-1 strain 6041.v3.c23 (HIV-1)
[26] = molecular target: Env of HIV-1 strain 6535.3 (HIV-1)
[27] = molecular target: Env of HIV-1 strain 6952.v1.c20 (HIV-1)
[28] = molecular target: Env of HIV-1 strain 7030102001E5(Rev-) (HIV-1)
[29] = molecular target: Env of HIV-1 strain 9004SS_A3_4 (HIV-1)
[30] = molecular target: Env of HIV-1 strain 928-28 (HIV-1)
[31] = molecular target: Env of HIV-1 strain BJOX025000.01.1 (HIV-1)
[32] = molecular target: Env of HIV-1 strain C1080.c03 (HIV-1)
[33] = molecular target: Env of HIV-1 strain C3347.c11 (HIV-1)
[34] = molecular target: Env of HIV-1 strain CAAN5342.A2 (HIV-1)
[35] = molecular target: Env of HIV-1 strain CAP210.2.00.E8 (HIV-1)
[36] = molecular target: Env of HIV-1 strain CAP45.2.00.G3 (HIV-1)
[37] = molecular target: Env of HIV-1 strain CNE52 (HIV-1)
[38] = molecular target: Env of HIV-1 strain Ce1086_B2 (HIV-1)
[39] = molecular target: Env of HIV-1 strain Ce1172_H1 (HIV-1)
[40] = molecular target: Env of HIV-1 strain Ce1176_A3 (HIV-1)
[41] = molecular target: Env of HIV-1 strain Ce2010_F5 (HIV-1)
[42] = molecular target: Env of HIV-1 strain Du422.1 (HIV-1)
[43] = molecular target: Env of HIV-1 strain HIV-0013095-2.11 (HIV-1)
[44] = molecular target: Env of HIV-1 strain P1981_C5_3 (HIV-1)
[45] = molecular target: Env of HIV-1 strain Q842.d12 (HIV-1)
[46] = molecular target: Env of HIV-1 strain R2184.c04 (HIV-1)
[47] = molecular target: Env of HIV-1 strain T250-4 (HIV-1)
[48] = molecular target: Env of HIV-1 strain T251-18 (HIV-1)
[49] = molecular target: Env of HIV-1 strain T278-50 (HIV-1)
[50] = molecular target: Env of HIV-1 strain THRO4156.18 (HIV-1)
[51] = molecular target: Env of HIV-1 strain ZM197M.PB7 (HIV-1)

B1: NIH45-46^G54W(HC), S28Y(LC) (antibody, V domains shown)
VH: QVRLSQSGGQMKKPGESMRLSCRASGYEFLNCPINWIRLAPGRRPEWMGWLKPRWGAVNYARKFQGRVTMTRDVYSDTAFLELRSLTSDDTAVYFCTRGKYCTARDYYNWDFEHWGRGAPVTVSS
VL: EIVLTQSPATLSLSPGETAIISCRTSQYGSLAWYQQRPGQAPRLVIYSGSTRAAGIPDRFSGSRWGADYNLSISNLESGDFGVYYCQQYEFFGQGTKVQVDI
IC50, pseudovirus neutralization [1]: 0.032 µg/mL
IC50, pseudovirus neutralization [2]: 0.05 µg/mL
IC50, pseudovirus neutralization [3]: 0.001 µg/mL
IC50, pseudovirus neutralization [4]: 0.018 µg/mL
IC50, pseudovirus neutralization [5]: 0.001 µg/mL
IC50, pseudovirus neutralization [6]: 0.03 µg/mL
IC50, pseudovirus neutralization [7]: 15.2 µg/mL
IC50, pseudovirus neutralization [8]: 0.046 µg/mL
IC50, pseudovirus neutralization [9]: 0.039 µg/mL
IC50, pseudovirus neutralization [10]: 0.031 µg/mL
IC50, pseudovirus neutralization [11]: 0.011 µg/mL
IC50, pseudovirus neutralization [12]: 0.032 µg/mL
IC50, pseudovirus neutralization [13]: 0.004 µg/mL
IC50, pseudovirus neutralization [14]: 0.002 µg/mL
IC50, pseudovirus neutralization [15]: 0.002 µg/mL
IC50, pseudovirus neutralization [16]: 0.07 µg/mL

B2: NIH45-46^G54W (antibody, V domains shown)
VH: B1 VH
VL: B1 VL with Y28S
IC80 [17]: 0.024 µg/mL
IC80 [18]: 0.099 µg/mL
IC80 [19]: 0.076 µg/mL
IC80 [20]: 0.017 µg/mL
IC80 [21]: 0.019 µg/mL
IC80 [22]: 15.4 µg/mL
IC80 [23]: 0.056 µg/mL
IC80 [24]: > 50 µg/mL
IC80 [25]: 0.001 µg/mL
IC80 [26]: 0.13 µg/mL
IC80 [27]: 0.01 µg/mL
IC80 [28]: 0.228 µg/mL
IC80 [29]: 0.28 µg/mL
IC80 [30]: 0.25 µg/mL
IC80 [31]: 0.135 µg/mL
IC80 [32]: 0.91 µg/mL
IC80 [33]: 0.028 µg/mL
IC80 [34]: 0.21 µg/mL
IC80 [35]: > 50 µg/mL
IC80 [36]: > 50 µg/mL
IC80 [37]: 0.052 µg/mL
IC80 [38]: 0.091 µg/mL
IC80 [39]: > 50 µg/mL
IC80 [40]: 0.45 µg/mL
IC80 [41]: 0.187 µg/mL
IC80 [42]: > 50 µg/mL
IC80 [43]: 0.027 µg/mL
IC80 [44]: 0.07 µg/mL
IC80 [45]: 0.025 µg/mL
IC80 [46]: 0.036 µg/mL
IC80 [47]: 44.9 µg/mL
IC80 [48]: 0.92 µg/mL
IC80 [49]: > 50 µg/mL
IC80 [50]: 1.81 µg/mL
IC80 [51]: 0.18 µg/mL
IC50, pseudovirus neutralization [1]: 0.117 µg/mL
IC50, pseudovirus neutralization [2]: 0.013 µg/mL
IC50, pseudovirus neutralization [3]: 0.001 µg/mL
IC50, pseudovirus neutralization [4]: 0.001 µg/mL
IC50, pseudovirus neutralization [5]: 0.001 µg/mL
IC50, pseudovirus neutralization [6]: 0.005 µg/mL
IC50, pseudovirus neutralization [7]: 18.9 µg/mL
IC50, pseudovirus neutralization [8]: 0.054 µg/mL
IC50, pseudovirus neutralization [9]: 0.048 µg/mL
IC50, pseudovirus neutralization [10]: 0.014 µg/mL
IC50, pseudovirus neutralization [11]: 0.01 µg/mL
IC50, pseudovirus neutralization [12]: 0.009 µg/mL
IC50, pseudovirus neutralization [13]: 0.019 µg/mL
IC50, pseudovirus neutralization [14]: 0.005 µg/mL
IC50, pseudovirus neutralization [15]: 0.001 µg/mL
IC50, pseudovirus neutralization [16]: 0.021 µg/mL

B3: NIH45-46^G54W(HC) S28Y(LC) (antibody, V domains shown)
VH: B1 VH
VL: B1 VL
IC80 [17]: 0.055 µg/mL
IC80 [18]: 0.13 µg/mL
IC80 [19]: 0.046 µg/mL
IC80 [20]: 0.019 µg/mL
IC80 [21]: 0.017 µg/mL
IC80 [22]: 0.037 µg/mL
IC80 [23]: 0.049 µg/mL
IC80 [24]: > 50 µg/mL
IC80 [25]: 0.003 µg/mL
IC80 [26]: 0.059 µg/mL
IC80 [27]: 0.042 µg/mL
IC80 [28]: 0.229 µg/mL
IC80 [29]: 0.138 µg/mL
IC80 [30]: 0.159 µg/mL
IC80 [31]: 0.211 µg/mL
IC80 [32]: 0.589 µg/mL
IC80 [33]: 0.034 µg/mL
IC80 [34]: 0.299 µg/mL
IC80 [35]: 9.05 µg/mL
IC80 [36]: 0.089 µg/mL
IC80 [37]: 0.028 µg/mL
IC80 [38]: 0.042 µg/mL
IC80 [39]: > 50 µg/mL
IC80 [40]: 0.467 µg/mL
IC80 [41]: 0.133 µg/mL
IC80 [42]: > 50 µg/mL
IC80 [43]: 0.017 µg/mL
IC80 [44]: 0.045 µg/mL
IC80 [45]: 0.017 µg/mL
IC80 [46]: 0.039 µg/mL
IC80 [47]: 38.9 µg/mL
IC80 [48]: 1.43 µg/mL
IC80 [49]: > 50 µg/mL
IC80 [50]: 2.74 µg/mL
IC80 [51]: 0.274 µg/mL
